From article PMC4140284, “Human UTY(KDM6C) Is a Male-specific N^ϵ-Methyl Lysyl Demethylase” (The Journal of Biological Chemistry, 2014)
Entries after “also recorded” stand apart in the source; their conditions may differ.

Key:
[1] = tested on: H3K27Me3 levels in HeLa cells; test: Immunofluorescence of global H3K27Me3 levels on overexpression in HeLa cells; assay type: cell-based; details: exogenous overexpression in HeLa cells
Experimental: For cell-based experiments, HEK 293T and HeLa cells were cultured at 37 °C and 5% CO2 in DMEM (Lonza) supplemented with 10% fetal bovine serum (FBS) (Invitrogen) and 1% Glutamax (Invitrogen). For microscopy, HeLa cells were seeded into 96-well clear bottom optical grade plates (BD Biosciences) at 8000 cells/well and allowed to settle overnight. Transfections were carried out the next day. For each well, 0.1 μg of plasmid and 0.25 μl of Lipofectamine 2000 (Invitrogen) were each incubated in 25 μl of Opti-MEM (Invitrogen) for 5 min at room temperature. The two solutions were then mixed gently but thoroughly and incubated for 20 min at room temperature. The mixture was added to the cells in 50 μl of fresh medium. Four hours later, the medium was changed, and the cells were incubated for a further 24 h before fixation. Cells were fixed in 4% (v/v) aqueous formaldehyde for 20 min, permeabilized in 0.5% Triton X-100 in phosphate-buffered saline (PBS) for 8 min, and blocked in 3% (w/v) FBS in PBS for 1 h with a PBS wash between each step. The primary antibodies were then added to the cells in blocking solution. […] Luciferase activity was measured using the Promega Dual-Luciferase Reporter Assay System on a Promega GloMax 20/20 luminometer. Readings were normalized to a Renilla luciferase control that was co-transfected with all samples. […]

[2] = tested on: ANF promoter in HEK 293T cells; test: ANF promoter dual luciferase assay in HEK 293T cells; assay type: cell-based; details: for ANF promoter luciferase expression in the presence of Nkx2.5: Nkx2.5 present
Experimental: For cell-based experiments, HEK 293T and HeLa cells were cultured at 37 °C and 5% CO2 in DMEM (Lonza) supplemented with 10% fetal bovine serum (FBS) (Invitrogen) and 1% Glutamax (Invitrogen). For microscopy, HeLa cells were seeded into 96-well clear bottom optical grade plates (BD Biosciences) at 8000 cells/well and allowed to settle overnight. Transfections were carried out the next day. For each well, 0.1 μg of plasmid and 0.25 μl of Lipofectamine 2000 (Invitrogen) were each incubated in 25 μl of Opti-MEM (Invitrogen) for 5 min at room temperature. The two solutions were then mixed gently but thoroughly and incubated for 20 min at room temperature. The mixture was added to the cells in 50 μl of fresh medium. Four hours later, the medium was changed, and the cells were incubated for a further 24 h before fixation. Cells were fixed in 4% (v/v) aqueous formaldehyde for 20 min, permeabilized in 0.5% Triton X-100 in phosphate-buffered saline (PBS) for 8 min, and blocked in 3% (w/v) FBS in PBS for 1 h with a PBS wash between each step. The primary antibodies were then added to the cells in blocking solution. After 1 h at room temperature, cells were washed three times in PBS, incubated with secondary antibodies for 1 h, rinsed three times in PBS again, and counterstained with DAPI before imaging. Luciferase activity assays were carried out as described previously ([13], [22], [40]). The atrial natriuretic factor (ANF) promoter-luciferase reporter was a kind gift from Benoit Bruneau ([41]). As for immunofluorescence assays, this construct was co-transfected into HEK 293T cells in the presence of full-length (FL) WT UTY(KDM6C) or H1095 UTY(KDM6C). Luciferase activity was measured using the Promega Dual-Luciferase Reporter Assay System on a Promega GloMax 20/20 luminometer. Readings were normalized to a Renilla luciferase control that was co-transfected with all samples.

B1: FL WT UTY(KDM6C): full-length wild type UTY(KDM6C) exogenously expressed in cells (protein, UniProt O14607 1-1347, looked up)
chain: MKSCAVSLTTAAVAFGDEAKKMAEGKASRESEEESVSLTVEEREALGGMDSRLFGFVRLHEDGARTKTLLGKAVRCYESLILKAEGKVESDFFCQLGHFNLLLEDYSKALSAYQRYYSLQADYWKNAAFLYGLGLVYFYYNAFHWAIKAFQDVLYVDPSFCRAKEIHLRLGLMFKVNTDYKSSLKHFQLALIDCNPCTLSNAEIQFHIAHLYETQRKYHSAKEAYEQLLQTENLPAQVKATVLQQLGWMHHNMDLVGDKATKESYAIQYLQKSLEADPNSGQSWYFLGRCYSSIGKVQDAFISYRQSIDKSEASADTWCSIGVLYQQQNQPMDALQAYICAVQLDHGHAAAWMDLGTLYESCNQPQDAIKCYLNAARSKRCSNTSTLAARIKFLQNGSDNWNGGQSLSHHPVQQVYSLCLTPQKLQHLEQLRANRDNLNPAQKHQLEQLESQFVLMQQMRHKEVAQVRTTGIHNGAITDSSLPTNSVSNRQPHGALTRVSSVSQPGVRPACVEKLLSSGAFSAGCIPCGTSKILGSTDTILLGSNCIAGSESNGNVPYLQQNTHTLPHNHTDLNSSTEEPWRKQLSNSAQGLHKSQSSCLSGPNEEQPLFSTGSAQYHQATSTGIKKANEHLTLPSNSVPQGDADSHLSCHTATSGGQQGIMFTKESKPSKNRSLVPETSRHTGDTSNGCADVKGLSNHVHQLIADAVSSPNHGDSPNLLIADNPQLSALLIGKANGNVGTGTCDKVNNIHPAVHTKTDHSVASSPSSAISTATPSPKSTEQRSINSVTSLNSPHSGLHTVNGEGLGKSQSSTKVDLPLASHRSTSQILPSMSVSICPSSTEVLKACRNPGKNGLSNSCILLDKCPPPRPPTSPYPPLPKDKLNPPTPSIYLENKRDAFFPPLHQFCTNPKNPVTVIRGLAGALKLDLGLFSTKTLVEANNEHMVEVRTQLLQPADENWDPTGTKKIWRCESNRSHTTIAKYAQYQASSFQESLREENEKRTQHKDHSDNESTSSENSGRRRKGPFKTIKFGTNIDLSDNKKWKLQLHELTKLPAFARVVSAGNLLTHVGHTILGMNTVQLYMKVPGSRTPGHQENNNFCSVNINIGPGDCEWFVVPEDYWGVLNDFCEKNNLNFLMSSWWPNLEDLYEANVPVYRFIQRPGDLVWINAGTVHWVQAVGWCNNIAWNVGPLTACQYKLAVERYEWNKLKSVKSPVPMVHLSWNMARNIKVSDPKLFEMIKYCLLKILKQYQTLREALVAAGKEVIWHGRTNDEPAHYCSICEVEVFNLLFVTNESNTQKTYIVHCHDCARKTSKSLENFVVLEQYKMEDLIQVYDQFTLALSLSSSS
modifications: full-length
notes: full-length wild type UTY(KDM6C) exogenously expressed in cells
B1 was tested, and the “change in global H3K27Me3 level” value [1] was “no detectable decrease; also recorded: no change in H3K27Me3 levels”, the “ANF promoter luciferase expression in the presence of Nkx2.5” value ([2]; HEK 293T cells) was “does not further enhance expression” and the “ANF promoter luciferase expression (in words)” value ([2]; HEK 293T cells, without Nkx2.5, *, p < 0.05 unpaired Student's t test) was “enhanced expression”. For the same molecule, the “increase in ANF promoter-coupled luciferase expression” value ([2]; overexpression in HEK 293T cells, relative to empty vector control, average of three biological replicates of triplicate transfections) was 5 -fold.

B2: Nkx2.5: transcription factor (protein, UniProt P52952 1-324, looked up)
Homeobox protein Nkx-2.5: MFPSPALTPTPFSVKDILNLEQQQRSLAAAGELSARLEATLAPSSCMLAAFKPEAYAGPEAAAPGLPELRAELGRAPSPAKCASAFPAAPAFYPRAYSDPDPAKDPRAEKKELCALQKAVELEKTEADNAERPRARRRRKPRVLFSQAQVYELERRFKQQRYLSAPERDQLASVLKLTSTQVKIWFQNRRYKCKRQRQDQTLELVGLPPPPPPPARRIAVPVLVRDGKPCLGDSAPYAPAYGVGLNPYGYNAYPAYPGYGGAACSPGYSCTAAYPAGPSPAQPATAAANNNFVNFGVGDLNAVQSPGIPQSNSGVSTLHGIRAW
B2 was tested, and the “ANF promoter luciferase expression in the presence of Nkx2.5” value ([2]; HEK 293T cells) was “enhanced expression from the ANF promoter”.
